From US20210301021A1 (NANJING GENSCRIPT BIOTECH, published 2021)

T1: CTLA4/His (human, UniProt P16410 36-161)
T1 construct: not shown: His tag
T1 sequence (looked up): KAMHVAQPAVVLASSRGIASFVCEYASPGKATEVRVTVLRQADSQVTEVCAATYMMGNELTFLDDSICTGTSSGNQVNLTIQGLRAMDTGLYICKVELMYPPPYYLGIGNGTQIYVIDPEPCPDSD

T2: CTLA-4 on the functional cells of the Promega anti-CTLA-4 blocking assay kit (UniProt P16410 36-223, limits assumed)
T2 sequence (looked up): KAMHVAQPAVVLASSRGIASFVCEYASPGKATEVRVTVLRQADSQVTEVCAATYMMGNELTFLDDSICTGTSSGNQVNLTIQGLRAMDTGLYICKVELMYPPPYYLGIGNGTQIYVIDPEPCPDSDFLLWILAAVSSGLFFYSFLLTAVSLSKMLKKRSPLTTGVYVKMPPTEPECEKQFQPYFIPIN

T3: human CTLA4-Fc recombinant protein (human, UniProt P16410 36-161)
T3 construct: not shown: Fc part
T3 sequence (looked up): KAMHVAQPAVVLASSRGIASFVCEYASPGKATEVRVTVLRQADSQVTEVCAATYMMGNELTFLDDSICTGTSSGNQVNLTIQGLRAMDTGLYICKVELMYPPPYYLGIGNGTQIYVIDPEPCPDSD


What was measured:
CTLA4/His [1] = molecular target: T1, CTLA4/His; assay: SPR (Biacore), untreated control of the oxidation pressure test, analyte CTLA4/His
[2] = molecular target: T2, CTLA-4 on the functional cells of the …; assay: cell-based or functional assay
CTLA4/His [3] = molecular target: T1, CTLA4/His; assay: SPR, Biacore 8K, antibody captured on the chip, antigen as analyte, 1:1 binding model
CTLA4/His [4] = molecular target: T1, CTLA4/His; assay: SPR (Biacore), after AAPH oxidation, analyte CTLA4/His
[5] = molecular target: T3, human CTLA4-Fc recombinant protein; assay: kinetics of the prokaryotic expression product, analyte CTLA4/Fc, 1:1 binding model
[6] = molecular target: T3, human CTLA4-Fc recombinant protein; assay: kinetics of the prokaryotic expression product, analyte CTLA4/Fc, 1:1 binding model; prokaryotic expression product, analyte CTLA4/Fc (Table 2)

| Binder | Kd (CTLA4/His [3]) [pM] | koff (CTLA4/His [3]) [s⁻¹] | kon (CTLA4/His [3]) [M⁻¹ s⁻¹] | Kd [5] [pM] | further results |
| --- | --- | --- | --- | --- | --- |
| AH01695 humanized anti-human CTLA4 monoclonal antibody (human IgG1/kappa) (antibody, V domains shown, also called AH1695) VH: QVQLVQSGAEVKKPGASVKVSCKASGYTFTSYWINWVRQAPGQGLEWMGRIAPGSGTTYYNEMFTGRVTLTRDTSTSTAYIELSSLRSEDTAVYFCAIGDYFDYWGQGTMVTVSS VL: DIQLTQSPSFLSASVGDRVTITCSASKSVSYIHWYQQKPGKAPKLLIYDTSTLASGVPSRFSGSGSGTEFTLTISSLQPEDFATYYCQQRTTYPLTFGQGTKLEIK | ≤ 15.3 | ≤ 1e-05 | 655000 | – | Kd (CTLA4/His [1]): 59.4 pM; koff (CTLA4/His [1]): 4.55e-05 s⁻¹; kon (CTLA4/His [1]): 767000 M⁻¹ s⁻¹; EC50 (µg/ml), luciferase reporter, Promega anti-CTLA-4 blocking assay (CD80/CD86 aAPC/Raji cells with functional cells expressing CTLA-4) [2]: 5.46 µg/mL |
| AH01704 humanized anti-human CTLA4 monoclonal antibody (human IgG1/kappa) (antibody, V domains shown) VH: QVQLVQSGAEVVKPGASVKVSCKASGYTFTSYWINWVKQAPGQGLEWMGRIAPGSGTTYYNEMFTGRVTLTRDTSTSTAYMELSSLRSEDTAVYFCARGDYFDYWGQGTMVTVSS VL: DIQLTQSPSFLSASVGDRVTITCSASKSVSYIHWYQQKPGKAPKLLIYDTSTLASGVPSRFSGSGSGTEYTLTISSLQPEDFATYYCQQRTTYPLTFGQGTKLEIK | 14.4 | 1.12e-05 | 780000 | – | – |
| AH01695 AAPH (AH01695 after the oxidation pressure test) (antibody, V domains shown, Met 63 oxidised in 70.898% of the sample; Met 250 (constant region of the heavy chain) oxidised in 26.143% (AAPH, 40 C, 24 h), Human IgG1/kappa, treated with AAPH; also called AH01695 AAPH-24 h) VH: QVQLVQSGAEVKKPGASVKVSCKASGYTFTSYWINWVRQAPGQGLEWMGRIAPGSGTTYYNEMFTGRVTLTRDTSTSTAYIELSSLRSEDTAVYFCAIGDYFDYWGQGTMVTVSS VL: DIQLTQSPSFLSASVGDRVTITCSASKSVSYIHWYQQKPGKAPKLLIYDTSTLASGVPSRFSGSGSGTEFTLTISSLQPEDFATYYCQQRTTYPLTFGQGTKLEIK | – | – | – | – | Kd (CTLA4/His [4]): 131 pM; koff (CTLA4/His [4]): 8.75e-05 s⁻¹; kon (CTLA4/His [4]): 670000 M⁻¹ s⁻¹ |
| AH01704 (prokaryotic expression antibody product, 5BM library) (Fab, V domains shown, Prokaryotic expression product from Phage-Fab / FASEBA-Fab plasmids) VH: QVQLVQSGAEVVKPGASVKVSCKASGYTFTSYWINWVKQAPGQGLEWMGRIAPGSGTTYYNEMFTGRVTLTRDTSTSTAYMELSSLRSEDTAVYFCARGDYFDYWGQGTMVTVSS VL: DIQLTQSPSFLSASVGDRVTITCSASKSVSYIHWYQQKPGKAPKLLIYDTSTLASGVPSRFSGSGSGTEYTLTISSLQPEDFATYYCQQRTTYPLTFGQGTKLEIK | – | – | – | 0.019 | – |
| AH01679 (prokaryotic expression antibody product, 5BM library) (Fab, V domains shown, Prokaryotic expression product from Phage-Fab / FASEBA-Fab plasmids) VH: QVQLVQSGAEVVKPGASVKLSCKASGYTFTSYWINWVRQAPGQGLEWIGRIAPGSGTTYYNEMFTGRVTMTRDTSTSTVYMELSSLRSEDTAVYYCARGDYFDYWGQGTMVTVSS VL: DIQLTQSPSFLSASVGDRVTITCSASKSVSYIHWYQQKPGKAPKLLIYDTSTLASGVPSRFSGSGSGTEFTLTISSLQPEDFATYYCQQRTTYPLTFGQGTKLEIK | – | – | – | 0.0431 | koff [6]: < 1e-05 s⁻¹ |
| AH01686 (prokaryotic expression antibody product, 5BM library) (Fab, V domains shown, Prokaryotic expression product from Phage-Fab / FASEBA-Fab plasmids) VH: QVQLVQSGAEVVKPGASVKVSCKASGYTFTSYWINWIKQAPGQGLEWIGRIAPGSGTTYYNEMFTGRVTLTRDTSTSTAYIELSSLRSEDTAVYFCARGDYFDYWGQGTMVTVSS VL: DIQLTQSPSFLSASVGDRVTITCSASKSVSYIHWYQQKPGKAPKLLIYDTSTLASGVPSRFSGSGSGTEFTLTISSLQPEDFATYYCQQRTTYPLTFGQGTKLEIK | – | – | – | 0.0433 | – |
| AH01686 humanized anti-human CTLA4 monoclonal antibody (human IgG1/kappa) (antibody, V domains shown) VH: QVQLVQSGAEVVKPGASVKVSCKASGYTFTSYWINWIKQAPGQGLEWIGRIAPGSGTTYYNEMFTGRVTLTRDTSTSTAYIELSSLRSEDTAVYFCARGDYFDYWGQGTMVTVSS VL: DIQLTQSPSFLSASVGDRVTITCSASKSVSYIHWYQQKPGKAPKLLIYDTSTLASGVPSRFSGSGSGTEFTLTISSLQPEDFATYYCQQRTTYPLTFGQGTKLEIK | 38.8 | 3.18e-05 | 820000 | – | – |
| AH01679 humanized anti-human CTLA4 monoclonal antibody (human IgG1/kappa) (antibody, V domains shown, also called AH1679) VH: QVQLVQSGAEVVKPGASVKLSCKASGYTFTSYWINWVRQAPGQGLEWIGRIAPGSGTTYYNEMFTGRVTMTRDTSTSTVYMELSSLRSEDTAVYYCARGDYFDYWGQGTMVTVSS VL: DIQLTQSPSFLSASVGDRVTITCSASKSVSYIHWYQQKPGKAPKLLIYDTSTLASGVPSRFSGSGSGTEFTLTISSLQPEDFATYYCQQRTTYPLTFGQGTKLEIK | ≤ 13.4 | ≤ 1e-05 | 748000 | – | EC50 (µg/ml), luciferase reporter, Promega anti-CTLA-4 blocking assay (CD80/CD86 aAPC/Raji cells with functional cells expressing CTLA-4) [2]: 17.1 µg/mL |
| AH01653 (prokaryotic expression antibody product, CBM library) (Fab, V domains shown) VH: QVHLVQSGAEVKKPGASVKVSCKASGYTFTSYWINWVKQAPGQGLEWMGRIAPGSGTTYYNEMFTGRVTMTRDTSTSTAYMELSSLRSEDTAVYYCARGDYFDYWDQGTMVTVSS VL: DIQLTQSPSFLSASVGDRVTITCSASKSVSYIHWYQQKPGKAPKLLIYDTSTLASGVPSRFSGSGSGPEYTLTISSLQPEDFATYYCQQRTTYPLTFGGGTKLEIK | – | – | – | 14.9 | – |
